# Test results as given in IntAct's records for PubMed 21785459.
# B1: Parkinson disease protein 7 (Homo sapiens), Q99497 (parent)
# chain: MASKRALVILAKGAEEMETVIPVDVMRRAGIKVTVAGLAGKDPVQCSRDVVICPDASLEDAKKEGPYDVVVLPGGNLGAQNLSESAAVKEILKEQENRKGLIAAICAGPTALLAHEIGFGSKVTTHPLAKDKMMNGGHYTYSENRVEKDGLILTSRGPGTSFEFALAIVEALNGKEVAAQVKAPLVLKD
# Variants of: B1
# Conditions: with fadd_human FADD
row,Variant,effect of a mutation on the interaction
1,MASKRALVILAKGAEEMETVIPVDVMRRAGIKVTVAGLAGKDPVQCSRDVVICPDASLEDAKKEGPYDVVVLPGGNLGAQNLSESAAVKEILKEQENRKGLIAAICAGPTALLAHEIGFGSKVTTHPLAKDKMMNGGHYTYSENRVEKDGLILTSRGPGTSFEFAPAIVEALNGKEVAAQVKAPLVLKD,disrupting interaction

# Variants of: B1
# Conditions: with fadd_human FADD
# Remark: another data set of the same source
row,Variant,effect of a mutation on the interaction
1,MASKRALVILAKGAEEMETVIPVDVMRRAGIKVTVAGLAGKDPVQCSRDVVICPDASLEDAKKEGPYDVVVLPGGNLGAQNLSESAAVKEILKEQENRKGLIAAICAGPTALLAHEIGFGSKVTTHPLAKDKMMNGGHYTYSENRVEKDGLILTSRGPGTSFEFAAAIVEALNGKEVAAQVKAPLVLKD,decreasing interaction
